Laboratory results published in paper PMC5703867, “Development of Novel Promiscuous Anti-Chemokine Peptibodies for Treating Autoimmunity and Inflammation” (Frontiers in Immunology, 2017).
Where no end group is shown, it is not given here. The star is where a group is joined. Biotin = O=C1N[C@H]2[C@H](CS[C@H]2CCCCC(=O)*)N1

B1: BKT120 biotinylated synthetic peptide (peptide)
peptide: LDYPIPQTVLHHGGGSK(Biotin)G
modifications: also: biotin at C-terminus, format X12GGGSK-biotin-G
notes: BKT120 peptide; C-terminal tail of the linear peptide format X12GGGSK-biotin-G; also called BTK120; source: synthetic peptide (Weizmann Institute of Science)
B2: BKT130 biotinylated synthetic peptide (peptide)
peptide: SIPSHSIHSAKAGGGSK(Biotin)G
modifications: also: biotin at C-terminus, format X12GGGSK-biotin-G
notes: BKT130 peptide; C-terminal tail of the linear peptide format X12GGGSK-biotin-G; also called BTK130; source: synthetic peptide (Weizmann Institute of Science)

Molecular target: T1, CCL2 (human, UniProt P13500 24-99)
T1 construct: CCL2, human, recombinant; source: bought: PeproTech
Test: ELISA; chemokine coated on maxisorp plates (0.1-1.0 µg/ml in 0.1 M NaHCO3, pH 8.6), BSA block, biotinylated synthetic peptides in TBST-BSA for 45 min at RT, detected with HRP-streptavidin or AP-anti-biotin; fold binding at 10 and 100 ng/ml peptide
Settings: both partners purified

T1 sequence (P13500 24-99): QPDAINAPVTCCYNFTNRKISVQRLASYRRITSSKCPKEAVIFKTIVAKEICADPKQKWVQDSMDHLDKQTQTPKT

Binder | binding result
B1 | binds
B2 | binds
